Measurements: article PMC11170914, “A distinct dimer configuration of a diatom Get3 forming a tetrameric complex with its tail-anchored membrane cargo” (BMC Biology, 2024)
“And” between values parts separate entries of the source, which are not always exact repeats. Identical values can stand only once. One block for each substance: values may come before it.

Assays:
[1] = target: Pt-Get3a (full-length, amino acids 1–349), purified, His-tag cleaved (Phaeodactylum tricornutum); assay: SAXS; HPLC with online size exclusion column, beamline BL23A1 (NSRRC), proteins ~5 mg/mL; P2 symmetry for the dimer, p222 for the Pt-Get3a/TA complex
[2] = target: Pt-Get3a (full-length, amino acids 1–349), purified, His-tag cleaved (Phaeodactylum tricornutum); assay: SEC; purified Pt-Get3a alone; NaCl increased to 500 mM; peak at ~78 mL
[3] = target: Pt-Get3a (full-length, amino acids 1–349), purified, His-tag cleaved (Phaeodactylum tricornutum); assay: SEC; purified Pt-Get3a (after TEV cleavage of the 6His-tag) or its mutants alone; near physiological saline, ~100 mM NaCl; tetramer-dimer equilibrium
[4] = target: Pt-Get3a L283D_I290D, purified (Phaeodactylum tricornutum); assay: as above
[5] = target: Pt-Get3a wild type, co-expressed with His-tagged TA protein (Phaeodactylum tricornutum); assay: SEC; Pt-Get3a/TA complex co-expressed and co-purified by Ni-NTA, then Superdex-200; ~100 mM NaCl and, as a control, 500 mM NaCl; fractions on SDS-PAGE
[6] = target: Pt-Get3a wild type, co-expressed with His-tagged TA protein (Phaeodactylum tricornutum); assay: SAXS; HPLC with online size exclusion column, beamline BL23A1 (NSRRC), proteins ~5 mg/mL; P2 symmetry for the dimer, p222 for the Pt-Get3a/TA complex

stoichiometry N [1]: 2
stoichiometry N [2]: 2
stoichiometry N [3]: 4
Substance: Pt-Get3a (full-length, amino acids 1–349), purified, His-tag cleaved (natural protein)

stoichiometry N [4]: 2
Substance: Pt-Get3a L283D_I290D, purified (natural protein)

stoichiometry N [5]: 4 and 2
stoichiometry N [6]: 4
Substance: Pt-Get3a wild type, co-expressed with His-tagged TA protein (natural protein)
